# Reference: patent US20250332238
# T1: TRMT112 (KMT9beta; tRNA methyltransferase subunit 11-2, isoform 2, Homo sapiens)
# T1 chain: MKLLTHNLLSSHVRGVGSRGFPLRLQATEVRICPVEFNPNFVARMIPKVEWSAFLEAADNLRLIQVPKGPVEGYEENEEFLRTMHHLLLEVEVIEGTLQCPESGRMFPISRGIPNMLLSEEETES
# Columns and labels:
# [1] = target: T1, TRMT112 (KMT9beta; tRNA …)
# [2] = target: mutant histone H4 where K12 was changed to alanine (H4K12A), P62805
protein,measurement,setting,value
"C21orf127 (KMT9alpha; N-6 adenine-specific DNA methyltransferase 1, isoform 1, Homo sapiens) (protein) MAGENFATPFHGHVGRGAFSDVYEPAEDTFLLLDALEAAAAELAGVEICLEVGSGSGVVSAFLASMIGPQALYMCTDINPEAAACTLETARCNKVHIQPVITDLVKGLLPRLTEKVDLLVFNPPYVVTPPQEVGSHGIEAAWAGGRNGREVMDRFFPLVPDLLSPRGLFYLVTIKENNPEEILKIMKTKGLQGTTALSRQAGQETLSVLKFTKS",HMT activity (methylation assay),[1],only the C21orf127/TRMT112 heterodimer displayed HMT activity
C21orf127/TRMT112 heterodimer (KMT9) (protein) chain 1: MAGENFATPFHGHVGRGAFSDVYEPAEDTFLLLDALEAAAAELAGVEICLEVGSGSGVVSAFLASMIGPQALYMCTDINPEAAACTLETARCNKVHIQPVITDLVKGLLPRLTEKVDLLVFNPPYVVTPPQEVGSHGIEAAWAGGRNGREVMDRFFPLVPDLLSPRGLFYLVTIKENNPEEILKIMKTKGLQGTTALSRQAGQETLSVLKFTKS chain 2: MKLLTHNLLSSHVRGVGSRGFPLRLQATEVRICPVEFNPNFVARMIPKVEWSAFLEAADNLRLIQVPKGPVEGYEENEEFLRTMHHLLLEVEVIEGTLQCPESGRMFPISRGIPNMLLSEEETES,"in vitro methylation assay with SAM [3H] (FIG. 1A, FIG. 1B)","histone H4, P62805","wild-type H4 protein, but not mutant H4 where K12 was changed to an alanine (A) residue (H4K12A), was methylated"
same,in vitro methylation assay with SAM [3H] (FIG. 1B),[2],"wild-type H4 protein, but not mutant H4 where K12 was changed to an alanine (A) residue (H4K12A), was methylated"
C21orf127(Y125A)/TRMT112 complex (protein) chain 1: MAGENFATPFHGHVGRGAFSDVYEPAEDTFLLLDALEAAAAELAGVEICLEVGSGSGVVSAFLASMIGPQALYMCTDINPEAAACTLETARCNKVHIQPVITDLVKGLLPRLTEKVDLLVFNPPAVVTPPQEVGSHGIEAAWAGGRNGREVMDRFFPLVPDLLSPRGLFYLVTIKENNPEEILKIMKTKGLQGTTALSRQAGQETLSVLKFTKS chain 2: MKLLTHNLLSSHVRGVGSRGFPLRLQATEVRICPVEFNPNFVARMIPKVEWSAFLEAADNLRLIQVPKGPVEGYEENEEFLRTMHHLLLEVEVIEGTLQCPESGRMFPISRGIPNMLLSEEETES,methylation of ETF1 (methylation assay),"ETF1, P62495","resulted in methylation of H4K12, but not ETF1 by the mutant C21orf127(Y125A)/TRMT112 complex"
same,methylation of H4K12 (methylation assay),"histone H4, P62805","resulted in methylation of H4K12, but not ETF1 by the mutant C21orf127(Y125A)/TRMT112 complex"
